In paper PMC7809796:

Target: Cdc4 (UniProt P07834)
Assay: His-Far1
Conditions: reference: wild type Far1(85-150)

Far1 85-150 (from UniProt P21268) S91 mutant (taken as S91A; not spelled out in text)
binding against the reference (sites S91): lost

Far1 85-150 (from UniProt P21268) S87 mutant (taken as S87A; not spelled out in text)
binding against the reference (sites S87): lost
